The text below walks through data of patent US10766960 (dated 2020).

Read-outs that look alike come from different tables or passages of the source.

Common to all, as to test: SPR
The target in assay [1] is T1, FcgRIIa R (human, UniProt P12318).
T1 chain: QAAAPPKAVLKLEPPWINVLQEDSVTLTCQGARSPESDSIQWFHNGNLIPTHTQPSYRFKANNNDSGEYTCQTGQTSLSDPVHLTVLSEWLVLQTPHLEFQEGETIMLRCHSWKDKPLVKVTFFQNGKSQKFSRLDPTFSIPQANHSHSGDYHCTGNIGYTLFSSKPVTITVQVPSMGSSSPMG

The target of assay [2] is T2, FcgRIIIa F (human, UniProt P08637).
The target in assay [3] is T2, FcgRIIIa F. The source holds these as a separate data set.
The target of assay [4] is T3, FcgRIIa H (human, UniProt P12318).
T3 chain: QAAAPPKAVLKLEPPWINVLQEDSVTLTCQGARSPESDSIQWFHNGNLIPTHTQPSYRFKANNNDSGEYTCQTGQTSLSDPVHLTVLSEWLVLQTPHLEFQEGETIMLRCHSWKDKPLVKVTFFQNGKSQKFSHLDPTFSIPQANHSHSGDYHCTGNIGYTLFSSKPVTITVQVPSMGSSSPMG

The target of assay [5] is T4, FcgRIIIa V (human, UniProt P08637).
For assay [6], the target named is T5, FcgRIa (human, UniProt P12314).
T5 chain: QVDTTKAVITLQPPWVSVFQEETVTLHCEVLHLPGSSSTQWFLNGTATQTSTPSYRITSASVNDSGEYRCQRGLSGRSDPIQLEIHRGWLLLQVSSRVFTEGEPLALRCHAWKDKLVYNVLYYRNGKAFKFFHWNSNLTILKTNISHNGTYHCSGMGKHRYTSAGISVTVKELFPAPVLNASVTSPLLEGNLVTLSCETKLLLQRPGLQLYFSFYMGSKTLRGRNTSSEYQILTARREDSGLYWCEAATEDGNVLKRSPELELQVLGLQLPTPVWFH

The target in assay [7] is T6, FcgRIIb (human, UniProt P31994).
T6 chain: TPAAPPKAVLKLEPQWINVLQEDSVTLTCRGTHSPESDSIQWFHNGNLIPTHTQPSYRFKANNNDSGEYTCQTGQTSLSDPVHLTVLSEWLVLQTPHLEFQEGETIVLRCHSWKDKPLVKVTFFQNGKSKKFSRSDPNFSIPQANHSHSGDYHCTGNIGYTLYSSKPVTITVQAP

Assay [8] addresses T2, FcgRIIIa F. This is another data set of the same source.
The target of assay [9] is T6, FcgRIIb.
The target of assay [10] is T1, FcgRIIa R.
The target in assay [11] is T4, FcgRIIIa V. The source holds these as a separate data set.
Assay [12] deals with T3, FcgRIIa H.
Assay [13] deals with T6, FcgRIIb.
Assay [14] addresses T4, FcgRIIIa V. This is another data set of the same source.
Assay [15] has as its target T1, FcgRIIa R.
Assay [16] deals with T3, FcgRIIa H.
In assay [17] the target is T5, FcgRIa.
Assay [18] concerns the target T5, FcgRIa.
Assay [19] has as its target T2, FcgRIIIa F. The source holds these as a separate data set.
Assay [20] concerns the target T6, FcgRIIb.
The target in assay [21] is T5, FcgRIa.
Assay [22] concerns the target T3, FcgRIIa H.
The target in assay [23] is T4, FcgRIIIa V. This is another data set of the same source.
Assay [24] addresses T1, FcgRIIa R.

T4 sequence (P08637 17-208 F176V): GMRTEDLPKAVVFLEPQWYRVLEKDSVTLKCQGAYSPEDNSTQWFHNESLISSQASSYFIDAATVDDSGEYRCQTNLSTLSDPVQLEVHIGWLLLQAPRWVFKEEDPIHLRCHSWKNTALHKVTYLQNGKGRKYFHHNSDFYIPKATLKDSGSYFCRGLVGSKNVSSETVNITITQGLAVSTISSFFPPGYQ
T2 sequence (P08637 17-208): as the sequence (P08637 17-208 F176V) above, with V160F counted along it

B1: H240-Kn120/H240-Hl068/L73-k0 (antibody)
chain 1: QDQLVQSGAEVKKPGASVKVSCKASGFNIKDTYIQWVRQAPGQGLEWMGRIDPLRKQTKYREKFEGRVTITADTSTNTAYMELSSLRSEDTAVYYCVRSGREFDYWGQGTLVTVSSASTKGPSVFPLAPSSKSTSGGTAALGCLVKDYFPEPVTVSWNSGALTSGVHTFPAVLQSSGLYSLSSVVTVPSSSLGTQTYICNVNHKPSNTKVDKKVEPKSCDKTHTCPPCPAPEYYWGPMVFLFPPKPKDTLMISRTPEVTCVVVDVSDEDPEVKFNWYVDGVEVHNAKTKPREEQYNATYRVVSVLTVLHQDWLNGKEYKCKVSNKDLPAPIEKTISKAKGQPREPQVCTLPPSRDELTKNQVSLWCLVKGFYPSDIAVEWESNGQPENNYKTTPPVLDSDGSFFLYSKLTVDKSRWQQGNVFSCSVMHEALHNHYTQKSLSLSP
chain 2: QDQLVQSGAEVKKPGASVKVSCKASGFNIKDTYIQWVRQAPGQGLEWMGRIDPLRKQTKYREKFEGRVTITADTSTNTAYMELSSLRSEDTAVYYCVRSGREFDYWGQGTLVTVSSASTKGPSVFPLAPSSKSTSGGTAALGCLVKDYFPEPVTVSWNSGALTSGVHTFPAVLQSSGLYSLSSVVTVPSSSLGTQTYICNVNHKPSNTKVDKKVEPKSCDKTHTCPPCPAPELLGGPSVFLFPPKPKDTLMISRTPEVTCVVVDVSHEEPEVKFNWYVDGVEVHNAKTKPREEQYNSTYRVVSVLTVLHQDWLNGKEYKCKVSNDALPKPIEETISKAKGQPREPQVYTLPPSRCELTKNQVSLSCAVKGFYPSDIAVEWESNGQPENNYKTTPPVLDSDGSFFLVSKLTVDKSRWQQGNVFSCSVMHEALHNHYTQKSLSLSP
chain 3: DIQMTQSPSSLSASVGDRVTITCRASQDIHKYIAWYQQKPGQAPRLLIQYTSTLQPGVPSRFSGSGSGTDYTFTISSLQPEDIATYYCLQYEQLRTFGGGTKVEIKRTVAAPSVFIFPPSDEQLKSGTASVVCLLNNFYPREAKVQWKVDNALQSGNSQESVTEQDSKDSTYSLSSTLTLSKADYEKHKVYACEVTHQGLSSPVTKSFNRGEC
Regarding B1, the Kd in assay [1] came to 20 nM; in [2] it was 2.4 nM; in assay [3], 2.2 nM; in [4], 41 nM; in assay [5], 0.33 nM; in assay [6], 0.37 nM. Moreover, the dissociation constant (Kd) in assay [7] worked out at 150 nM; in assay [8], 2.4 nM; in assay [9] it was 150 nM; in assay [10], 23 nM; in assay [11], 0.66 nM; in [12], 59 nM. Besides, the equilibrium dissociation constant (Kd) amounted to 150 nM in [13]; 0.36 nM in assay [14]; 17 nM in assay [15]; 44 nM in assay [16]; 0.16 nM in assay [17]; 0.11 nM in [18].

B2: H240-Kn037/H240-Hl036/L73-k0 (antibody)
chain 1: QDQLVQSGAEVKKPGASVKVSCKASGFNIKDTYIQWVRQAPGQGLEWMGRIDPLRKQTKYREKFEGRVTITADTSTNTAYMELSSLRSEDTAVYYCVRSGREFDYWGQGTLVTVSSASTKGPSVFPLAPSSKSTSGGTAALGCLVKDYFPEPVTVSWNSGALTSGVHTFPAVLQSSGLYSLSSVVTVPSSSLGTQTYICNVNHKPSNTKVDKKVEPKSCDKTHTCPPCPAPELLAGPDVFLFPPKPKDTLMISRTPEVTCVVVDVSHEDPEVKFNWYVDGVEVHNAKTKPREEQYNSTYRVVSVLTVLHQDWLNGKEYKCKVSNKALPAPEEKTISKAKGQPREPQVCTLPPSRDELTKNQVSLWCLVKGFYPSDIAVEWESNGQPENNYKTTPPVLDSDGSFFLYSKLTVDKSRWQQGNVFSCSVMHEALHNHYTQKSLSLSP
chain 2: QDQLVQSGAEVKKPGASVKVSCKASGFNIKDTYIQWVRQAPGQGLEWMGRIDPLRKQTKYREKFEGRVTITADTSTNTAYMELSSLRSEDTAVYYCVRSGREFDYWGQGTLVTVSSASTKGPSVFPLAPSSKSTSGGTAALGCLVKDYFPEPVTVSWNSGALTSGVHTFPAVLQSSGLYSLSSVVTVPSSSLGTQTYICNVNHKPSNTKVDKKVEPKSCDKTHTCPPCPAPELLAGPDVFLFPPKPKDTLMISRTPEVTCVVVDVSHEDPEVKFNWYVDGVEVHNAKTKPREEQYNSTYRVVSVLTVLHQDWLNGKEYKCKVSNKALPAPEEKTISKAKGQPREPQVYTLPPSRCELTKNQVSLSCAVKGFYPSDIAVEWESNGQPENNYKTTPPVLDSDGSFFLVSKLTVDKSRWQQGNVFSCSVMHEALHNHYTQKSLSLSP
chain 3: DIQMTQSPSSLSASVGDRVTITCRASQDIHKYIAWYQQKPGQAPRLLIQYTSTLQPGVPSRFSGSGSGTDYTFTISSLQPEDIATYYCLQYEQLRTFGGGTKVEIKRTVAAPSVFIFPPSDEQLKSGTASVVCLLNNFYPREAKVQWKVDNALQSGNSQESVTEQDSKDSTYSLSSTLTLSKADYEKHKVYACEVTHQGLSSPVTKSFNRGEC
As to B2, the Kd in assay [2] amounted to 21 nM; in assay [6], 0.098 nM; in assay [11], 6.8 nM; in [12], 46 nM; in assay [13], 380 nM; in [15], 29 nM.

B3: H240-Kn229/H240-Hl068/L73-k0 (antibody)
chain 1: QDQLVQSGAEVKKPGASVKVSCKASGFNIKDTYIQWVRQAPGQGLEWMGRIDPLRKQTKYREKFEGRVTITADTSTNTAYMELSSLRSEDTAVYYCVRSGREFDYWGQGTLVTVSSASTKGPSVFPLAPSSKSTSGGTAALGCLVKDYFPEPVTVSWNSGALTSGVHTFPAVLQSSGLYSLSSVVTVPSSSLGTQTYICNVNHKPSNTKVDKKVEPKSCDKTHTCPPCPAPEYYWGPIVFLFPPKPKDTLMISRTPEVTCVVVDVSDEDPEVKFNWYVDGVEVHNAKTKPREEQYNATYRVVSVLTVLHQDWLNGKEYKCKVSNKDLPAPIEKTISKAKGQPREPQVCTLPPSRDELTKNQVSLWCLVKGFYPSDIAVEWESNGQPENNYKTTPPVLDSDGSFFLYSKLTVDKSRWQQGNVFSCSVMHEALHNHYTQKSLSLSP
chain 2: QDQLVQSGAEVKKPGASVKVSCKASGFNIKDTYIQWVRQAPGQGLEWMGRIDPLRKQTKYREKFEGRVTITADTSTNTAYMELSSLRSEDTAVYYCVRSGREFDYWGQGTLVTVSSASTKGPSVFPLAPSSKSTSGGTAALGCLVKDYFPEPVTVSWNSGALTSGVHTFPAVLQSSGLYSLSSVVTVPSSSLGTQTYICNVNHKPSNTKVDKKVEPKSCDKTHTCPPCPAPELLGGPSVFLFPPKPKDTLMISRTPEVTCVVVDVSHEEPEVKFNWYVDGVEVHNAKTKPREEQYNSTYRVVSVLTVLHQDWLNGKEYKCKVSNDALPKPIEETISKAKGQPREPQVYTLPPSRCELTKNQVSLSCAVKGFYPSDIAVEWESNGQPENNYKTTPPVLDSDGSFFLVSKLTVDKSRWQQGNVFSCSVMHEALHNHYTQKSLSLSP
chain 3: DIQMTQSPSSLSASVGDRVTITCRASQDIHKYIAWYQQKPGQAPRLLIQYTSTLQPGVPSRFSGSGSGTDYTFTISSLQPEDIATYYCLQYEQLRTFGGGTKVEIKRTVAAPSVFIFPPSDEQLKSGTASVVCLLNNFYPREAKVQWKVDNALQSGNSQESVTEQDSKDSTYSLSSTLTLSKADYEKHKVYACEVTHQGLSSPVTKSFNRGEC
B3: the dissociation constant Kd in assay [19] was found to be 2.1 nM; in [20] it was 200 nM; in assay [21] it was 0.13 nM; in [22], 39 nM; in [23], 0.77 nM; in assay [24], 16 nM.
